Assay results reported in PMC8104893 (Science Advances, 2021).

Target: T1, GST-XBAT31 (Arabidopsis, UniProt Q94B55 1-456)
T1 sequence (looked up): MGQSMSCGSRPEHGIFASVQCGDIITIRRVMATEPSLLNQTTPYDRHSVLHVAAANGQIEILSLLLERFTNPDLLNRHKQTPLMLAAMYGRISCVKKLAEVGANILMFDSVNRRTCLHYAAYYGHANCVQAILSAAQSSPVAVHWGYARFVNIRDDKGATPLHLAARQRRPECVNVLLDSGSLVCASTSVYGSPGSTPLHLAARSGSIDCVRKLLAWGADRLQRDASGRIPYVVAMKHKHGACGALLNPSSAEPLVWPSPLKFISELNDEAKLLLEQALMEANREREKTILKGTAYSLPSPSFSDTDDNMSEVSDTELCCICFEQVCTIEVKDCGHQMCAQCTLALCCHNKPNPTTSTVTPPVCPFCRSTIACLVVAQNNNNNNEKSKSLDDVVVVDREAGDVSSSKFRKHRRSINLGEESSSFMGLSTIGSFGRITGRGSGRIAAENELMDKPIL
Test: pull-down

- binding result: binds
B1: MBP-BBX18 (natural protein, Arabidopsis, UniProt Q9SJU5 1-172, looked up)
chain: MRILCDACESAAAIVFCAADEAALCCSCDEKVHKCNKLASRHLRVGLADPSNAPSCDICENAPAFFYCEIDGSSLCLQCDMVVHVGGKRTHRRFLLLRQRIEFPGDKPNHADQLGLRCQKASSGRGQESNGNGDHDHNMIDLNSNPQRVHEPGSHNQEEGIDVNNANNHEHE
